Reference: patent publication US20230250170A1

Experiments:
[1] = biological target: monkey NPR1 extracellular domain expressed with a C-terminal myc-myc-hexahistidine (monkey); assay: SPR Biacore 4000, mAb captured via anti-hFc, 37 C, binding pH 7.4, dissociation pH 7.4
[2] = biological target: human NPR1 extracellular domain expressed with a C-terminal myc-myc-hexahistidine (human) (UniProt P16066); assay: as above
[3] = biological target: mouse NPR1 extracellular domain expressed with a C-terminal myc-myc-hexahistidine (mouse) (UniProt P18293); assay: SPR Biacore 8K, mAb captured via anti-hFc, 37 C
[4] = biological target: pig NPR1 extracellular domain expressed with a C-terminal myc-myc-hexahistidine (pig); assay: SPR Biacore 8K, mAb captured via anti-hFc, 37 C
[5] = biological target: dog NPR1 extracellular domain expressed with a C-terminal myc-myc-hexahistidine (dog); assay: SPR Biacore 8K, mAb captured via anti-hFc, 37 C
[6] = biological target: monkey NPR1 extracellular domain expressed with a C-terminal myc-myc-hexahistidine (monkey); assay: SPR Biacore 8K, mAb captured via anti-hFc, 37 C
[7] = biological target: human NPR1 extracellular domain expressed with a C-terminal myc-myc-hexahistidine (human) (UniProt P16066); assay: SPR Biacore 8K, mAb captured via anti-hFc, 37 C
[8] = biological target: hNPR1-MMH in the presence of hANP (receptor-ligand complex) (human) (UniProt P01160); assay: SPR Biacore 8K, mAb captured via anti-hFc, 25 C, 10-fold hANP present
[9] = biological target: monkey NPR1 extracellular domain expressed with a C-terminal myc-myc-hexahistidine (monkey); assay: SPR Biacore 4000, mAb captured via anti-hFc, 37 C, binding pH 7.4, dissociation pH 6.0
[10] = biological target: human NPR1 extracellular domain expressed with a C-terminal myc-myc-hexahistidine (human) (UniProt P16066); assay: as above
[11] = biological target: hNPR1-MMH in the presence of hANP (receptor-ligand complex) (human) (UniProt P01160); assay: SPR Biacore 8K, mAb captured via anti-hFc, 37 C, 10-fold hANP present
[12] = biological target: human NPR1 on HEK293/hNPR1 cells (human) (UniProt P16066); assay: cell-based or functional assay
[13] = biological target: mouse NPR1 extracellular domain expressed with a C-terminal myc-myc-hexahistidine (mouse) (UniProt P18293); assay: SPR Biacore 8K, mAb captured via anti-hFc, 25 C
[14] = biological target: pig NPR1 extracellular domain expressed with a C-terminal myc-myc-hexahistidine (pig); assay: SPR Biacore 8K, mAb captured via anti-hFc, 25 C
[15] = biological target: dog NPR1 extracellular domain expressed with a C-terminal myc-myc-hexahistidine (dog); assay: SPR Biacore 8K, mAb captured via anti-hFc, 25 C
[16] = biological target: monkey NPR1 extracellular domain expressed with a C-terminal myc-myc-hexahistidine (monkey); assay: SPR Biacore 8K, mAb captured via anti-hFc, 25 C
[17] = biological target: human NPR1 extracellular domain expressed with a C-terminal myc-myc-hexahistidine (human) (UniProt P16066); assay: SPR Biacore 8K, mAb captured via anti-hFc, 25 C

Sequence of human NPR1 on HEK293/hNPR1 cells (human) (P16066 33-1061): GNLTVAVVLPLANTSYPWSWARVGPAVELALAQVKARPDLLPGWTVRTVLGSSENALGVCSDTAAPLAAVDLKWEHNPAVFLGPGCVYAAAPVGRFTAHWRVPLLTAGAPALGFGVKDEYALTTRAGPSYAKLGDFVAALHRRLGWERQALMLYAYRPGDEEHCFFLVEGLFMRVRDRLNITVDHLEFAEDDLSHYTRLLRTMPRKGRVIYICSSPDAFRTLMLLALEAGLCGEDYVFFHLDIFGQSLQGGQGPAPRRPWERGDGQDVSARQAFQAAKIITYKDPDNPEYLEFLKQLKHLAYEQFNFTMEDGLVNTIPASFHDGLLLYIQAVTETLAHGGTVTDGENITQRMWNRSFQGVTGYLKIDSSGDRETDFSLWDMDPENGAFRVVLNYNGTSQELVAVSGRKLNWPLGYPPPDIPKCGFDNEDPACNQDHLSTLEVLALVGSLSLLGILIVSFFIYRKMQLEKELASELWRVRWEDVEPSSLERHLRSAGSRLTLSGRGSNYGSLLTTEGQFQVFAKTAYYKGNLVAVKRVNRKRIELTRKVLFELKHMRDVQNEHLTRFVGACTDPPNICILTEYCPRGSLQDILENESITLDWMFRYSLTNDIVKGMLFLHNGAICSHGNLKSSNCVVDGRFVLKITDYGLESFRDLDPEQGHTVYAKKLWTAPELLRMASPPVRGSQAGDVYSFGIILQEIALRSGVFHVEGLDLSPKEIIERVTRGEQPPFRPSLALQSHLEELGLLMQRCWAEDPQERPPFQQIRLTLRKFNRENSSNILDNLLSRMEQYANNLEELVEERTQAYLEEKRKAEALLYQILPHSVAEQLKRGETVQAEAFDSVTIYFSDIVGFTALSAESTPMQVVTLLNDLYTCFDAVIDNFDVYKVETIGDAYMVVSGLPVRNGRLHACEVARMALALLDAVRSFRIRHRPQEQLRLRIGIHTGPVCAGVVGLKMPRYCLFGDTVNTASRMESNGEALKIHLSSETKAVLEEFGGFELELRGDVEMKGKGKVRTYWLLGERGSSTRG
Sequence of human NPR1 extracellular domain expressed with a C-terminal myc-myc-hexahistidine (human) (P16066 other isoform, or with tags, fused parts or gaps): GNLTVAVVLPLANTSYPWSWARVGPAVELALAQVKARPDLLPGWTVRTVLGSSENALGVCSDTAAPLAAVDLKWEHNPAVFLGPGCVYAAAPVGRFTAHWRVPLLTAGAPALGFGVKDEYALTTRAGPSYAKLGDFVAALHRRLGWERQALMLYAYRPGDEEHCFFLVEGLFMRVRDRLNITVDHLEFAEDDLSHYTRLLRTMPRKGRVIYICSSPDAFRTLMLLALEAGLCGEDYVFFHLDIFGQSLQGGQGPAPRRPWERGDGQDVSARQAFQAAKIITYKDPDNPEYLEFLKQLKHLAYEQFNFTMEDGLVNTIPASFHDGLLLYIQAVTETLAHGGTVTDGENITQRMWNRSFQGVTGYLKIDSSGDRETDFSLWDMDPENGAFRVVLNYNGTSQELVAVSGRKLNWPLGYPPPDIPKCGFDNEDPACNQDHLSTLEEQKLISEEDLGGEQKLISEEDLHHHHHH
Sequence of monkey NPR1 extracellular domain expressed with a C-terminal myc-myc-hexahistidine (monkey) (P16066 other isoform, or with tags, fused parts or gaps): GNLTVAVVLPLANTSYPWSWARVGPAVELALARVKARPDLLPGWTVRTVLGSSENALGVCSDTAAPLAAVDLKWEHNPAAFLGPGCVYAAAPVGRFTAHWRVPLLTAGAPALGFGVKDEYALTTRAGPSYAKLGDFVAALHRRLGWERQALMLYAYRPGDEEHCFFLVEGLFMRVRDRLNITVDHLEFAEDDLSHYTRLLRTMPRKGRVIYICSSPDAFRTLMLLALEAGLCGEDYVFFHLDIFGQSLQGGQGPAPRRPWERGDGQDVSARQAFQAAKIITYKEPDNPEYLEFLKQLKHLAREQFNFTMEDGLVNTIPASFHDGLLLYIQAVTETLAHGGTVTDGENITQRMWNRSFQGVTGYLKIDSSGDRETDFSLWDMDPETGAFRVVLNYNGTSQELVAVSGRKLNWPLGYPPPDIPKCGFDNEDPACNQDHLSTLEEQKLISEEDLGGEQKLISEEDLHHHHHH
Sequence of dog NPR1 extracellular domain expressed with a C-terminal myc-myc-hexahistidine (dog) (chain, as listed by the source limits assumed): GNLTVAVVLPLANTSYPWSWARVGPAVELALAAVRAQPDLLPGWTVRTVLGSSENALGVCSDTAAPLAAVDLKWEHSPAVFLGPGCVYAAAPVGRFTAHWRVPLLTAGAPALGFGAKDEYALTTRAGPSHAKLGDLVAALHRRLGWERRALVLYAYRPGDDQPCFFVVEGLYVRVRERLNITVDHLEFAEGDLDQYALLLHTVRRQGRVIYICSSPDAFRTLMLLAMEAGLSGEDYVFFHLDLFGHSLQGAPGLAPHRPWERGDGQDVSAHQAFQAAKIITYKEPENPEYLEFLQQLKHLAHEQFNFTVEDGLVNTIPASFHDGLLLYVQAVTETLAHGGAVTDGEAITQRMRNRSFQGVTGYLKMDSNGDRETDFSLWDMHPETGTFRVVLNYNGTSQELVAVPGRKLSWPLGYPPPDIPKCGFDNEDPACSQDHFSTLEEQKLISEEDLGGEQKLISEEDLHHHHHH
Sequence of pig NPR1 extracellular domain expressed with a C-terminal myc-myc-hexahistidine (pig) (chain, as listed by the source limits assumed): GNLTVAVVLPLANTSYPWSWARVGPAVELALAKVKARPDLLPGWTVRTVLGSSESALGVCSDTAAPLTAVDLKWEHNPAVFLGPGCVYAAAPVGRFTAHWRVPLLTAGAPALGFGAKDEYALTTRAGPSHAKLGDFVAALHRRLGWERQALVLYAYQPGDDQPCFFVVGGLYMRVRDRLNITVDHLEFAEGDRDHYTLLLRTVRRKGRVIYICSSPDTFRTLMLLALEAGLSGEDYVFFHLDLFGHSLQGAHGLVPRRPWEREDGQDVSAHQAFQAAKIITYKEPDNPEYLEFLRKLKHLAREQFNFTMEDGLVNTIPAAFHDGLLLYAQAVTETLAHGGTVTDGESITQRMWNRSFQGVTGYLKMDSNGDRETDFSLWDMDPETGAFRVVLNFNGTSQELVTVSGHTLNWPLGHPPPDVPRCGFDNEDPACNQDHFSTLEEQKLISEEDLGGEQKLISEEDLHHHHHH
Sequence of hNPR1-MMH in the presence of hANP (receptor-ligand complex) (human) (P01160 124-151 limits assumed, chain 2 of 2): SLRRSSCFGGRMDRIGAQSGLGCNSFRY
Sequence of mouse NPR1 extracellular domain expressed with a C-terminal myc-myc-hexahistidine (mouse) (P18293 other isoform, or with tags, fused parts or gaps): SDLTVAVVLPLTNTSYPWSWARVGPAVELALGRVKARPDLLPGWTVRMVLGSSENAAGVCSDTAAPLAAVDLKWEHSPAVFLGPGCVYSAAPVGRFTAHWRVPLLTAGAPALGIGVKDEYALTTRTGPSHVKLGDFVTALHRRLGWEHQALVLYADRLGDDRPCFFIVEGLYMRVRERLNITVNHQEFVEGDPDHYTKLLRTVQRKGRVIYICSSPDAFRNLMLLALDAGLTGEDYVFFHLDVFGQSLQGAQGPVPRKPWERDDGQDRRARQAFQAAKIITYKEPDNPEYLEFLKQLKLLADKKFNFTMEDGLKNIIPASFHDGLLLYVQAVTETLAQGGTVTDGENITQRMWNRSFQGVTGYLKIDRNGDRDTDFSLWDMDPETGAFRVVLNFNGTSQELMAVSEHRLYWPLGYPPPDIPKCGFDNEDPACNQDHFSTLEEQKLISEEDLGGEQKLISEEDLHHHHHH

Work on Isotype control (antibody) yielded a 30 nM Ag Bound (RU) [1] of 1 RU, a 30 nM Ag Bound (RU) [2] of 2 RU and a 40 nM Ag Bound (RU) [3] of 0 RU. For the same substance, the 40 nM Ag Bound (RU) [4] was 0 RU, the 40 nM Ag Bound (RU) [5] was 0 RU and the 40 nM Ag Bound (RU) [6] was 0 RU. The 40 nM Ag Bound (RU) [7] was 0 RU, the 40 nM Ag Bound (RU) [8] was 0 RU and the 30 nM Ag Bound (RU) [9] was 2 RU. For the same substance, the 30 nM Ag Bound (RU) [10] was 2 RU, the 40 nM Ag Bound (RU) [11] was 0 RU and the Max Kill, %, secondary ADC mediated cytotoxicity, no ligand [12] was 0.01%. For the same substance, the Max Kill, %, secondary ADC mediated cytotoxicity, with 100 nM ANP [12] was -4%, the Max Kill, %, secondary ADC mediated cytotoxicity, with 100 nM BNP [12] was 0.5% and the Max inh., %, cGMP accumulation assay, with 0.2 nM ANP [12] was -1%. For the same substance, the Max inh., %, cGMP accumulation assay, with 0.7 nM BNP [12] was -9%, the 40 nM Ag Bound (RU) [13] was 0 RU and the 40 nM Ag Bound (RU) [14] was 0 RU. For the same substance, the 40 nM Ag Bound (RU) [15] was 0 RU, the 40 nM Ag Bound (RU) [16] was 1 RU and the 40 nM Ag Bound (RU) [17] was 0 RU.
